Results from US20100278818A1.

B1: chimeric anti-Tn (chi-83D4) mAb (antibody, human IgG1, kappa, V domains shown)
VH: QVQLQQSDAELVKPGASVKISCKASGYTFTDHAIHWVKQKPEQGLEWIGYFSPGNGDIKYNEKFKGKATLTADKSSSTAYMQLNSLTSEDSAVYFCKRSYGNYDYWGQGTTLTVSS
VL: DILLTQSPAILSVSPGERVSFSCRASQNIGTSIHWYQQRTNGSPRLLIKYASESVSGIPSRFSGSGSGTDFTLSINSVESEDIADYYCQHTNSWPTTFGGGTKLEIKR

Columns and labels:
[1] = target: Tn antigen (GalNAc alpha-O-Ser/Thr of a polypeptide chain) at the surface of human tumor cells; assay: flow cytometry, biotinylated IVIG control and SA-PE on EpCam+CD45- ovarian cancer cells from patient ascitis
[2] = target: Tn antigen (GalNAc alpha-O-Ser/Thr of a polypeptide chain) at the surface of human tumor cells; assay: flow cytometry MFI against antibody concentration on Jurkat cells; design: unit not given here
[3] = target: Tn antigen (GalNAc alpha-O-Ser/Thr of a polypeptide chain) at the plasma membrane of murine tumor cell lines; assay: flow cytometry MFI against antibody concentration on TA3HA cells
[4] = target: Tn antigen (GalNAc alpha-O-Ser/Thr of a polypeptide chain) at the surface of human tumor cells; assay: flow cytometry, biotinylated chi-83D4 and SA-PE on EpCam+CD45- ovarian cancer cells from patient ascitis (one representative patient)
[5] = target: Tn antigen (GalNAc alpha-O-Ser/Thr of a polypeptide chain) at the surface of human tumor cells; assay: immunohistochemistry, biotinylated chi-83D4 and avidin-HRP on 3 primary ovarian serous adenocarcinomas
[6] = target: Tn antigen (GalNAc alpha-O-Ser/Thr of a polypeptide chain) at the surface of human tumor cells; assay: flow cytometry, biotinylated chi-83D4 preincubated with GalNac (1 M), SA-PE, EpCam+CD45- ovarian cancer cells from patient ascitis
[7] = target: Tn antigen (GalNAc alpha-O-Ser/Thr of a polypeptide chain) at the surface of human tumor cells; assay: flow cytometry MFI against antibody concentration on Shin3 cells; design: unit not given here

Row | MFI [1] | saturating concentration [2] | saturating concentration [3] [mg/mL] | MFI [4] | percent of tumor cells labeled [5] [%] | MFI [6] | saturating concentration [7] | Molecule
1 | 1810 | – | – | – | – | – | – | Intravenous immunoglobulin (Tegeline, IVIG) (antibody)
2 | – | 70 | 50 | 4490 | 70 to 80 | 1830 | 20 | B1
